Experimental findings from article PMC2138200 are described below.

Several values for one entry are separate records, joined by “and”; a condition that tells them apart may be missing. Equal entries are not always repeated.

For this experiment, the target named is p53, Gal4 fusion of the two-hybrid control plasmid pM53. The experiment can be described thus: two-hybrid.

As to “SV-40 large T, VP16 fusion of the two-hybrid control plasmid pV-T (natural protein)”, the CAT protein of the two-hybrid reporter is 186 pg and 251 pg.
